# IntAct's records for PubMed 31515488
# B1: Zinc finger protein 581 (Homo sapiens), Q9P0T4 (parent)
# chain: MLVLPSPCPQPLAFSSVETMEGPPRRTCRSPEPGPSSSIGSPQASSPPRPNHYLLIDTQGVPYTVLVDEESQREPGASGAPGQKKCYSCPVCSRVFEYMSYLQRHSITHSEVKPFECDICGKAFKRASHLARHHSIHLAGGGRPHGCPLCPRRFRDAGELAQHSRVHSGERPFQCPHCPRRFMEQNTLQKHTRWKHP
# B2: Atos homolog protein B (Homo sapiens), Q7L5A3 (parent)
# chain: MRHVQAEPSPSSEPEAGPSQPPVRQGALQGGLLMGYSPAGGATSPGVYQVSIFSPPAGTSEPHRALKRQAPSTEGPRELKRGPGLGAREGLPPEEPSTVGLLGPEGPGLGLGVASQHFSHRGLCVVEQRSSVTSSWTSGAWSPPCPPSNASCNTLHTRDWASPDPGGQGSLGESPGPAPPGQLHTLDTDLHSLAQIGGKSPVAGVGNGGSLWPRESPGTANGHSPEHTPPGPGPPGPCPTKRRLLPAGEAPDVSSEEEGPAPRRRRGSLGHPTAANSSDAKATPFWSHLLPGPKEPVLDPTDCGPMGRRLKGARRLKLSPLRSLRKGPGLLSPPSASPVPTPAVSRTLLGNFEESLLRGRFAPSGHIEGFTAEIGASGSYCPQHVTLPVTVTFFDVSEQNAPAPFLGIVDLNPLGRKGYSVPKVGTVQVTLFNPNQTVVKMFLVTFDFSDMPAAHMTFLRHRLFLVPVGEEGNANPTHRLLCYLLHLRFRSSRSGRLSLHGDIRLLFSRRSLELDTGLPYELQAVTEAPHNPRYSPLP
# B3: Splicing factor 45 (Homo sapiens), Q96I25 (parent)
# chain: MSLYDDLGVETSDSKTEGWSKNFKLLQSQLQVKKAALTQAKSQRTKQSTVLAPVIDLKRGGSSDDRQIVDTPPHVAAGLKDPVPSGFSAGEVLIPLADEYDPMFPNDYEKVVKRQREERQRQRELERQKEIEEREKRRKDRHEASGFARRPDPDSDEDEDYERERRKRSMGGAAIAPPTSLVEKDKELPRDFPYEEDSRPRSQSSKAAIPPPVYEEQDRPRSPTGPSNSFLANMGGTVAHKIMQKYGFREGQGLGKHEQGLSTALSVEKTSKRGGKIIVGDATEKDASKKSDSNPLTEILKCPTKVVLLRNMVGAGEVDEDLEVETKEECEKYGKVGKCVIFEIPGAPDDEAVRIFLEFERVESAIKAVVDLNGRYFGGRVVKACFYNLDKFRVLDLAEQV
# partner: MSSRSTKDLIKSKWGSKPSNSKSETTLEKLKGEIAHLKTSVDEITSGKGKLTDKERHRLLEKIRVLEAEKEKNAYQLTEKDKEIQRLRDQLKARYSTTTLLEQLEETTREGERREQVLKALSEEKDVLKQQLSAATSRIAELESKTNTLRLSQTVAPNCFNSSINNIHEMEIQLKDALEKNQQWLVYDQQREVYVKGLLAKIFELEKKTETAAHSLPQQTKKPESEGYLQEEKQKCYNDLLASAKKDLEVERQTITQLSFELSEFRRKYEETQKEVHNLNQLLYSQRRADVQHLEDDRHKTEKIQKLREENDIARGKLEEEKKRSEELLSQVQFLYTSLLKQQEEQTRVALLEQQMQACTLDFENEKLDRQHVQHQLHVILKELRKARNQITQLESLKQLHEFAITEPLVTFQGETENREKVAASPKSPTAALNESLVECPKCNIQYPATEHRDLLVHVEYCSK
# B4: Caspase recruitment domain-containing protein 9 (Homo sapiens), Q9H257 (parent)
# chain: MSDYENDDECWSVLEGFRVTLTSVIDPSRITPYLRQCKVLNPDDEEQVLSDPNLVIRKRKVGVLLDILQRTGHKGYVAFLESLELYYPQLYKKVTGKEPARVFSMIIDASGESGLTQLLMTEVMKLQKKVQDLTALLSSKDDFIKELRVKDSLLRKHQERVQRLKEECEAGSRELKRCKEENYDLAMRLAHQSEEKGAALMRNRDLQLEIDQLKHSLMKAEDDCKVERKHTLKLRHAMEQRPSQELLWELQQEKALLQARVQELEASVQEGKLDRSSPYIQVLEEDWRQALRDHQEQANTIFSLRKDLRQGEARRLRCMEEKEMFELQCLALRKDSKMYKDRIEAILLQMEEVAIERDQAIATREELHAQHARGLQEKDALRKQVRELGEKADELQLQVFQCEAQLLAVEGRLRRQQLETLVLSSDLEDGSPRRSQELSLPQDLEDTQLSDKGCLAGGGSPKQPFAALHQEQVLRNPHDAGLSSGEPPEKERRRLKESFENYRRKRALRKMQKGWRQGEEDRENTTGSDNTDTEGS
# partner: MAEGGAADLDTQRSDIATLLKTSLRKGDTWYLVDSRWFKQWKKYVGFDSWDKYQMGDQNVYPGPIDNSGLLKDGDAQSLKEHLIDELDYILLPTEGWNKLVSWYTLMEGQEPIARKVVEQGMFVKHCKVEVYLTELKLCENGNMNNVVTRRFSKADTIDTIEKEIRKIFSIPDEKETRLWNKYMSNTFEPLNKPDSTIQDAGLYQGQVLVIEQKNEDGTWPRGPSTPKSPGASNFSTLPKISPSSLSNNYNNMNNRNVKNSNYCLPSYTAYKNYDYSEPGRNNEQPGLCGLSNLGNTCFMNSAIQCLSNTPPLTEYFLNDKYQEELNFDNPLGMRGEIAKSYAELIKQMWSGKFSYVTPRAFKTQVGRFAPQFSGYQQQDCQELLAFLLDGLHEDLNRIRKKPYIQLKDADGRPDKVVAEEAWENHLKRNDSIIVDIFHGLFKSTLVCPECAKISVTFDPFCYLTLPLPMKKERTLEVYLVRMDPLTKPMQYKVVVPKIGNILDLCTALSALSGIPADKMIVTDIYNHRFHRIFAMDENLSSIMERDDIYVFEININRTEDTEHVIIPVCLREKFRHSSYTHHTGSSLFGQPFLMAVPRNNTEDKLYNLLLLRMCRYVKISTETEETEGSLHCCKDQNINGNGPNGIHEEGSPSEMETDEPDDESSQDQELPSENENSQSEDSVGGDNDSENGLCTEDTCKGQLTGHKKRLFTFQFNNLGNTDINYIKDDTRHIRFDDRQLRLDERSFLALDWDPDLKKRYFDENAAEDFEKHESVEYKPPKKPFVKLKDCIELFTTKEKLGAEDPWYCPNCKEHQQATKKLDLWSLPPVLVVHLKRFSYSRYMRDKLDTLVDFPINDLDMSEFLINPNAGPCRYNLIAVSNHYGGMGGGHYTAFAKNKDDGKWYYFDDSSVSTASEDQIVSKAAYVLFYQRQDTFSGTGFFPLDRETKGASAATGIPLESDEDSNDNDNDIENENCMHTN
# Variants of: B1
# Conditions: with cc136_human CCDC136, Q96JN2
# cc136_human CCDC136, Q96JN2, sequence (Q96JN2 whole entry): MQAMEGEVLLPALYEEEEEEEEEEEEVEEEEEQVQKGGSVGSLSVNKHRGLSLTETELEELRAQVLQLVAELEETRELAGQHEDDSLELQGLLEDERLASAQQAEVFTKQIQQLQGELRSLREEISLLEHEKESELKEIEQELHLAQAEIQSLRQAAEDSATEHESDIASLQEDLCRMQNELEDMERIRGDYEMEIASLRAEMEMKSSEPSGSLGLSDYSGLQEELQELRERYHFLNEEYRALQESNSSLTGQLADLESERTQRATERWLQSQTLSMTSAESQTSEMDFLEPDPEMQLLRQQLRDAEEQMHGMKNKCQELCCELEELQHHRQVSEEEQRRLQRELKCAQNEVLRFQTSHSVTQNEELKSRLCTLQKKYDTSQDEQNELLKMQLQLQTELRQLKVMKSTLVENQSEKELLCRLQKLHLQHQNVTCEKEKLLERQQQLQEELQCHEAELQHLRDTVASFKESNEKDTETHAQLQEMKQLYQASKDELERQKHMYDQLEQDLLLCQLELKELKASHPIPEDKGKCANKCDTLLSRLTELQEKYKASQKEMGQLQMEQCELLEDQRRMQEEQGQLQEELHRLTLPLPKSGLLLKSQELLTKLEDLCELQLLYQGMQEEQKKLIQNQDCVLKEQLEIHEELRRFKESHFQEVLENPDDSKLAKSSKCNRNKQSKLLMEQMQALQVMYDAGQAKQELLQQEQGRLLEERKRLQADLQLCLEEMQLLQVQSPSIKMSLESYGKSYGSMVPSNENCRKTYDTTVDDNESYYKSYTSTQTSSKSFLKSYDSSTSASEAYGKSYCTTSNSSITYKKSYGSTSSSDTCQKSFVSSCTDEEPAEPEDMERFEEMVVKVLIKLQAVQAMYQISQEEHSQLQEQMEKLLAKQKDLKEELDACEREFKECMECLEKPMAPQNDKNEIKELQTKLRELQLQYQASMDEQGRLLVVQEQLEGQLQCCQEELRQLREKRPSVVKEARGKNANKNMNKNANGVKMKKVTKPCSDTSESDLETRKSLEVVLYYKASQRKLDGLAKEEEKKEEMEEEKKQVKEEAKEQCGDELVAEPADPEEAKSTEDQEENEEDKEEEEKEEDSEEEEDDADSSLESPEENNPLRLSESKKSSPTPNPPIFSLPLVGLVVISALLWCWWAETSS
row,Variant,effect of a mutation on the interaction
1,MLVLPSPCPQPLAFSSVETMEGPPRRTCRSPEPGPSSSIGSPQASSPPRPNHYLLIDTQGVPYTVLVDEESQREPGASGAPGQKKCYSCPVCSRVFEYMSYLQRHSITHSEVKPFECDICGKAFKRASHLARHHSIHLAGGGWPHGCPLCPRRFRDAGELAQHSRVHSGERPFQCPHCPRRFMEQNTLQKHTRWKHP [R143W],with no effect

# Variants of: B1
# Conditions: with mtus2_human MTUS2, Q5JR59
# mtus2_human MTUS2, Q5JR59, sequence (Q5JR59 whole entry): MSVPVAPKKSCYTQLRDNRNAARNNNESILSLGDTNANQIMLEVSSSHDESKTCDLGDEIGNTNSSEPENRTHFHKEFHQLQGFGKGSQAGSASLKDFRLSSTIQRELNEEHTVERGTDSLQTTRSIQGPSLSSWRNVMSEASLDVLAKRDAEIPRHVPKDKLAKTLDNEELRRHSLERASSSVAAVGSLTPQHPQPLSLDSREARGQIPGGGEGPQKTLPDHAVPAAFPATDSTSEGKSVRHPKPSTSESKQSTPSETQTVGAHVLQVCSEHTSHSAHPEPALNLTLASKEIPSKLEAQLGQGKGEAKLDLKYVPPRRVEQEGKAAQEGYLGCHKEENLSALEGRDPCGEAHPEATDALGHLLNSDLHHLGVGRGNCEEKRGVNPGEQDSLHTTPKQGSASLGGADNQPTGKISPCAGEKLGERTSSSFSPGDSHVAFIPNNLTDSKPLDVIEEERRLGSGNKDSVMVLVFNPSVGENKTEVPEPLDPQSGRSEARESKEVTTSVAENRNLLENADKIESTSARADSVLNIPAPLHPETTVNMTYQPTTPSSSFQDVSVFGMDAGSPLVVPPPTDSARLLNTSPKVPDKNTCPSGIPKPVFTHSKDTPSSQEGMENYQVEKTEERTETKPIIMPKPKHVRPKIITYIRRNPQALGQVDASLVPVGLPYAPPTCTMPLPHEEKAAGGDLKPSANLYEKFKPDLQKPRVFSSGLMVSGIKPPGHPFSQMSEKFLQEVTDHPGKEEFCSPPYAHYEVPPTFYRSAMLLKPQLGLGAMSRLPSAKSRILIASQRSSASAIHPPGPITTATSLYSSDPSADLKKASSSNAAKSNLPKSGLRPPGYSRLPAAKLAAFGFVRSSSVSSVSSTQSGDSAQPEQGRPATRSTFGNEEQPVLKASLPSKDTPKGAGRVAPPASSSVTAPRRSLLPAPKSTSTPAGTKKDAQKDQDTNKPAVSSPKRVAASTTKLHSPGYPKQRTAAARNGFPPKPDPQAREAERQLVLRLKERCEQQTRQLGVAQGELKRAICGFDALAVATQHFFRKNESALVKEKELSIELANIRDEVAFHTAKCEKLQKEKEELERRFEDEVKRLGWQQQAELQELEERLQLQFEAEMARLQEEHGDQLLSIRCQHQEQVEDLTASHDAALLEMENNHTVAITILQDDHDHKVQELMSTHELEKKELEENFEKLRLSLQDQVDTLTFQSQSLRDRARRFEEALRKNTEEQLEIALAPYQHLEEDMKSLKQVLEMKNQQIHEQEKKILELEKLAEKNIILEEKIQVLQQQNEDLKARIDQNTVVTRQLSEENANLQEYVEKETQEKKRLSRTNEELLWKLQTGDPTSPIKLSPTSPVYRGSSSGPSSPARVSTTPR
row,Variant,effect of a mutation on the interaction
1,MLVLPSPCPQPLAFSSVETMEGPPRRTCRSPEPGPSSSIGSPQASSPPRPNHYLLIDTQGVPYTVLVDEESQREPGASGAPGQKKCYSCPVCSRVFEYMSYLQRHSITHSEVKPFECDICGKAFKRASHLARHHSIHLAGGGWPHGCPLCPRRFRDAGELAQHSRVHSGERPFQCPHCPRRFMEQNTLQKHTRWKHP [R143W],with no effect

# Variants of: B1
# Conditions: with tri23_human TRIM23, P36406
# tri23_human TRIM23, P36406, sequence (P36406 whole entry): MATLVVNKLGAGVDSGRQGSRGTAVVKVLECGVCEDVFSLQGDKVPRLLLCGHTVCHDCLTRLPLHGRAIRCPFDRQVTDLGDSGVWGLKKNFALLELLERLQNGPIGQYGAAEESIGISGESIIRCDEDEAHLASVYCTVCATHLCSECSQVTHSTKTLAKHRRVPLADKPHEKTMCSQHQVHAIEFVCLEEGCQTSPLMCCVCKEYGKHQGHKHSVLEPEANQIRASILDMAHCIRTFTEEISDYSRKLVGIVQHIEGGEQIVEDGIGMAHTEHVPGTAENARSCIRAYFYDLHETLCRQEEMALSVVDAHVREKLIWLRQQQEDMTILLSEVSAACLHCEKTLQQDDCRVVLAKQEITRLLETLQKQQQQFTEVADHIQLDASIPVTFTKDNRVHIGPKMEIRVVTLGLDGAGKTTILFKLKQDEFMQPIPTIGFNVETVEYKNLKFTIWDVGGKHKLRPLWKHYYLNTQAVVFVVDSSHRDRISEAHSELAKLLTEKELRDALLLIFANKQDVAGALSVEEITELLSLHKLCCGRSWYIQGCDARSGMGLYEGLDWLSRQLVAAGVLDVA
row,Variant,effect of a mutation on the interaction
1,MLVLPSPCPQPLAFSSVETMEGPPRRTCRSPEPGPSSSIGSPQASSPPRPNHYLLIDTQGVPYTVLVDEESQREPGASGAPGQKKCYSCPVCSRVFEYMSYLQRHSITHSEVKPFECDICGKAFKRASHLARHHSIHLAGGGWPHGCPLCPRRFRDAGELAQHSRVHSGERPFQCPHCPRRFMEQNTLQKHTRWKHP [R143W],with no effect

# Variants of: B2
# Conditions: with dnja3_human DNAJA3, Q96EY1
# dnja3_human DNAJA3, Q96EY1, sequence (Q96EY1 whole entry): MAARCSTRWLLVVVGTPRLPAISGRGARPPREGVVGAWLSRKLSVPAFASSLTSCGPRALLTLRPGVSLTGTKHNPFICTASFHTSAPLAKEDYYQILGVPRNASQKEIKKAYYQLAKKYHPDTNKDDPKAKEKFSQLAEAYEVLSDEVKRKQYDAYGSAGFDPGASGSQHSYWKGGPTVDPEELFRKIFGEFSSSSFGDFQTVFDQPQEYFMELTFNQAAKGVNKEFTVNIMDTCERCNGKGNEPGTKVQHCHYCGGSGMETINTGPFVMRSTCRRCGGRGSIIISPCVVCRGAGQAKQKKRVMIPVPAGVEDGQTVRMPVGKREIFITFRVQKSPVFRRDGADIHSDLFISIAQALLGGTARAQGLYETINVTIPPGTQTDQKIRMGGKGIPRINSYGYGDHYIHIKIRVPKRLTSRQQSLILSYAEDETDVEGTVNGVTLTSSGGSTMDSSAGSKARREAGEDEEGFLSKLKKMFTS
row,Variant,effect of a mutation on the interaction
1,MRHVQAEPSPSSEPEAGPSQPPVRQGALQGGLLMGYSPAGGATSPGVYQVSIFSPPAGTSEPHRALKRQAPSTEGPRELKRGPGLGAREGLPPEEPSTVGLLGPEGPGLGLGVASQHFSHRGLCVVEQRSSVTSSWTSGAWSPPCPPSNASCNTLHTRDWASPDPGGQGSLGESPGPTPPGQLHTLDTDLHSLAQIGGKSPVAGVGNGGSLWPRESPGTANGHSPEHTPPGPGPPGPCPTKRRLLPAGEAPDVSSEEEGPAPRRRRGSLGHPTAANSSDAKATPFWSHLLPGPKEPVLDPTDCGPMGRRLKGARRLKLSPLRSLRKGPGLLSPPSASPVPTPAVSRTLLGNFEESLLRGRFAPSGHIEGFTAEIGASGSYCPQHVTLPVTVTFFDVSEQNAPAPFLGIVDLNPLGRKGYSVPKVGTVQVTLFNPNQTVVKMFLVTFDFSDMPAAHMTFLRHRLFLVPVGEEGNANPTHRLLCYLLHLRFRSSRSGRLSLHGDIRLLFSRRSLELDTGLPYELQAVTEAPHNPRYSPLP [A178T],with no effect

# Variants of: B2
# Conditions: with cep70_human CEP70, Q8NHQ1
# cep70_human CEP70, Q8NHQ1, sequence (Q8NHQ1 whole entry): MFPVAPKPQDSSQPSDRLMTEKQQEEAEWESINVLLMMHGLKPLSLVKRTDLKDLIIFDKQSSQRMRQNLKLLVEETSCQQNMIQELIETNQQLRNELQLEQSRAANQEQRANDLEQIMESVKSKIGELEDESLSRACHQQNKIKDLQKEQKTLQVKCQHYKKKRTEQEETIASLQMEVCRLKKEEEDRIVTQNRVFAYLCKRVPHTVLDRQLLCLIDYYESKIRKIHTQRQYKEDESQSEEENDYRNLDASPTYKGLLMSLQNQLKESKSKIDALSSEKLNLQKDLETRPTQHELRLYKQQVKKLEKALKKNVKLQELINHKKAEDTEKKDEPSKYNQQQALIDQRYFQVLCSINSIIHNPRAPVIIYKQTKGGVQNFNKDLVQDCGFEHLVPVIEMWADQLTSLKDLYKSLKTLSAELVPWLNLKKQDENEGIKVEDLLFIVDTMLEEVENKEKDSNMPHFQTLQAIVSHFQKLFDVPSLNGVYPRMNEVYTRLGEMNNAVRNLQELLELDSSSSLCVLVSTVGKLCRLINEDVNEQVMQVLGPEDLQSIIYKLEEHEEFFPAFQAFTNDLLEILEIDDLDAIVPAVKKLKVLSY
row,Variant,effect of a mutation on the interaction
1,MRHVQAEPSPSSEPEAGPSQPPVRQGALQGGLLMGYSPAGGATSPGVYQVSIFSPPAGTSEPHRALKRQAPSTEGPRELKRGPGLGAREGLPPEEPSTVGLLGPEGPGLGLGVASQHFSHRGLCVVEQRSSVTSSWTSGAWSPPCPPSNASCNTLHTRDWASPDPGGQGSLGESPGPTPPGQLHTLDTDLHSLAQIGGKSPVAGVGNGGSLWPRESPGTANGHSPEHTPPGPGPPGPCPTKRRLLPAGEAPDVSSEEEGPAPRRRRGSLGHPTAANSSDAKATPFWSHLLPGPKEPVLDPTDCGPMGRRLKGARRLKLSPLRSLRKGPGLLSPPSASPVPTPAVSRTLLGNFEESLLRGRFAPSGHIEGFTAEIGASGSYCPQHVTLPVTVTFFDVSEQNAPAPFLGIVDLNPLGRKGYSVPKVGTVQVTLFNPNQTVVKMFLVTFDFSDMPAAHMTFLRHRLFLVPVGEEGNANPTHRLLCYLLHLRFRSSRSGRLSLHGDIRLLFSRRSLELDTGLPYELQAVTEAPHNPRYSPLP [A178T],with no effect

# Variants of: B2
# Conditions: with ikzf1_human IKZF1, Q13422
# ikzf1_human IKZF1, Q13422, sequence (Q13422 whole entry): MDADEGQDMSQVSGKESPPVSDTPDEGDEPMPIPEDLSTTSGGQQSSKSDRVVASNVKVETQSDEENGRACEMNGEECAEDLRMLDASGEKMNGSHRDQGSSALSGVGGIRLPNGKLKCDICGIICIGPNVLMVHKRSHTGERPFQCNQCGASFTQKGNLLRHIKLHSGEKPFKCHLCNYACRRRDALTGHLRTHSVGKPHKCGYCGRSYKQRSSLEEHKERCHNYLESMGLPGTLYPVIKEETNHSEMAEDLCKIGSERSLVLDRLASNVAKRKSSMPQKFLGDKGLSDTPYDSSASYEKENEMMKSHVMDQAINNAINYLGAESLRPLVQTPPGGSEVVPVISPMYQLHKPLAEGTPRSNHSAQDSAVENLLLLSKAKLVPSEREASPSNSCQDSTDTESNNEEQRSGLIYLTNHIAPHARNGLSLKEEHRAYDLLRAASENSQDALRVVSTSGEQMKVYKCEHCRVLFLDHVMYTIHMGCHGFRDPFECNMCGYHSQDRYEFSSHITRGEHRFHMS
row,Variant,effect of a mutation on the interaction
1,MRHVQAEPSPSSEPEAGPSQPPVRQGALQGGLLMGYSPAGGATSPGVYQVSIFSPPAGTSEPHRALKRQAPSTEGPRELKRGPGLGAREGLPPEEPSTVGLLGPEGPGLGLGVASQHFSHRGLCVVEQRSSVTSSWTSGAWSPPCPPSNASCNTLHTRDWASPDPGGQGSLGESPGPTPPGQLHTLDTDLHSLAQIGGKSPVAGVGNGGSLWPRESPGTANGHSPEHTPPGPGPPGPCPTKRRLLPAGEAPDVSSEEEGPAPRRRRGSLGHPTAANSSDAKATPFWSHLLPGPKEPVLDPTDCGPMGRRLKGARRLKLSPLRSLRKGPGLLSPPSASPVPTPAVSRTLLGNFEESLLRGRFAPSGHIEGFTAEIGASGSYCPQHVTLPVTVTFFDVSEQNAPAPFLGIVDLNPLGRKGYSVPKVGTVQVTLFNPNQTVVKMFLVTFDFSDMPAAHMTFLRHRLFLVPVGEEGNANPTHRLLCYLLHLRFRSSRSGRLSLHGDIRLLFSRRSLELDTGLPYELQAVTEAPHNPRYSPLP [A178T],with no effect

# Variants of: B3
# Conditions: with cep55_human CEP55, Q53EZ4
row,Variant,effect of a mutation on the interaction
1,MSLYDDLGVETSDSKTEGWSKNFKLLQSQLQVKKAALTQAKSQRTKQSTVLAPVIDLKRGGSSDDRQIVDTPPHVAAGLKDPVPSGFSAGEVLIPLADEYDPMFPNDYEKVVKRQREERQRQRELERQKEIEEREKRRKDRHEASGFARRPDPDSDEDEDYERERRKRSMGGAAIAPPTSLVEKDKELPRDFPYEEDSRPRSQSSKAAIPPPVYEEQDRPRSPIGPSNSFLANMGGTVAHKIMQKYGFREGQGLGKHEQGLSTALSVEKTSKRGGKIIVGDATEKDASKKSDSNPLTEILKCPTKVVLLRNMVGAGEVDEDLEVETKEECEKYGKVGKCVIFEIPGAPDDEAVRIFLEFERVESAIKAVVDLNGRYFGGRVVKACFYNLDKFRVLDLAEQV [T224I],with no effect

# Variants of: B4
# Conditions: with ubp15_human USP15, Q9Y4E8
row,Variant,effect of a mutation on the interaction
1,MSDYENDDECWSVLEGFRVTLTSVIDPSRITPYLRQCKVLNPDDEEQVLSDPNLVIRKRKVGVLLDILQRTGHKGYVAFLESLELYYPQLYKKVTGKEPARVFSMIIDASGESGLTQLLMTEVMKLQKKVQDLTALLSSKDDFIKELRVKDSLLRKHQERVQRLKEECEAGSRELKRCKEENYDLAMRLAHQSEEKGAALMRNRDLQLEIDQLKHSLMKAEDDCKVERKHTLKLRHAMEQRPSQELLWELQQEKALLQARVQELEASVQEGKLDRSSPYIQVLEEDWRQALRDHQEQANTIFSLRKDLRQGEARRLRCMEEKEMFELQCLALRKDSKMYKDRIEAILLQMEEVAIERDQAIATREELHAQHARGLQEKDALRKQLRELGEKADELQLQVFQCEAQLLAVEGRLRRQQLETLVLSSDLEDGSPRRSQELSLPQDLEDTQLSDKGCLAGGGSPKQPFAALHQEQVLRNPHDAGLSSGEPPEKERRRLKESFENYRRKRALRKMQKGWRQGEEDRENTTGSDNTDTEGS [V385L],disrupting interaction strength
